The text below walks through data of PMC4742757, “The Prodomain-bound Form of Bone Morphogenetic Protein 10 Is Biologically Active on Endothelial Cells*” (The Journal of Biological Chemistry, 2015).

Data set [1] concerns the molecule itself. In words: non-reducing SDS-PAGE; peak gel filtration fraction of purified pBMP10 on non-reducing SDS-PAGE; Coomassie stain and anti-BMP10 immunoblot.
Data set [2] has as its target T1, BMPR-II extracellular domain (ECD), human, residues 27-150 (human, UniProt Q13873-1 27-150).
T1 construct: Bone morphogenetic protein receptor type II, human, extracellular domain, residues 27-150 (NM_001204); Cloned in pET39b as DsbA-(His)6-TEV site-BMPR2 ECD; also called BMPR-II ECD; BMPR2 ECD; source: E. coli Rosetta DE3, periplasmic extract, purified (Ni-NTA, TEV cleavage, second Ni-NTA flowthrough, S75 gel filtration); not shown: DsbA, N-terminal, cleaved; His6, N-terminal, cleaved
T1 sequence (looked up): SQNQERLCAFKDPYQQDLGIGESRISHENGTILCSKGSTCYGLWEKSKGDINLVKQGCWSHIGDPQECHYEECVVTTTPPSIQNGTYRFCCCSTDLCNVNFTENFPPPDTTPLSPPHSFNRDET
In words: native gel or EMSA; 10% native PAGE of purified pBMP10 complex alone or with BMPR-II ECD (molar ratio pBMP10:BMPR-II ECD 1:1, 1:2, 1:4); bands excised and immunoblotted for BMP10 GFD and prodomain. To be noted: both partners purified. A general note: In EMSA bound probe runs differently from free probe, usually more slowly.

B1: BMP10 growth factor domain (GFD), recombinant human, from the in-house pBMP10 complex (ligand, UniProt O95393 317-424, looked up)
chain: NAKGNYCKRTPLYIDFKEIGWDSWIIAPPGYEAYECRGVCNYPLAEHLTPTKHAIIQALVHLKNSQKASKACCVPTKLEPISILYLDKGVVTYKFKYEGMAVSECGCR
notes: Bone morphogenetic protein 10, human; the mature growth factor domain cut from full-length proBMP10 by furin; Expressed from full-length proBMP10 cDNA, co-transfected with furin; Covalently linked (D-form) and non-covalently linked (M-form) dimers are both in the preparation; also called BMP10 GFD; mature BMP10; source: HEK EBNA cells transfected with proBMP10 and furin in pCEP4; purified from …
As to B1, the binding result in data set [1] and in data set [2] was “binds” each time.
